Test [1] has as its target T1, cynomolgus monkey TG2 (cynomolgus monkey, UniProt A0A2K5VXI8 2-687).
T1 construct: Recombinant, from Trenzyme; also called cynomogulus monkey TG2; cyano TG2
T1 sequence: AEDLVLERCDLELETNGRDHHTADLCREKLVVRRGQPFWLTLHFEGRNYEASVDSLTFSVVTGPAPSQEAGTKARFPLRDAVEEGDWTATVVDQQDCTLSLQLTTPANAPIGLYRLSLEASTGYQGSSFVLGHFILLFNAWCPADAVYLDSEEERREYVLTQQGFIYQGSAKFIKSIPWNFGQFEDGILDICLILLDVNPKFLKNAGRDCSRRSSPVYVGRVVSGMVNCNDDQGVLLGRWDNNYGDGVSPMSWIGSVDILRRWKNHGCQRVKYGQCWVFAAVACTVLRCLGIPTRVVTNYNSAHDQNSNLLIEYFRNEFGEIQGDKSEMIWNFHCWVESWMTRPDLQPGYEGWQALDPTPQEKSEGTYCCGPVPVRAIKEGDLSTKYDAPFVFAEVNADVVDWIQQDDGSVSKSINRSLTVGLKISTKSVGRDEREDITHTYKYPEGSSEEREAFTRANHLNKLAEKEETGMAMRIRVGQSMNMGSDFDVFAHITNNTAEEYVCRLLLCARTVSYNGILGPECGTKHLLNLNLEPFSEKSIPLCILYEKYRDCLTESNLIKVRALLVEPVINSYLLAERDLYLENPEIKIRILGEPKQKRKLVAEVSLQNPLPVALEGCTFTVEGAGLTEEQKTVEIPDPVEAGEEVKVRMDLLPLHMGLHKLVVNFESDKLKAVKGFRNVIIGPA
Kind of test: SPR (Biacore T200), antibody captured on anti-human IgG1 Fc chip, cynomolgus TG2 injected; Ca2+ condition not marked in this row. The procedure: (§1) The method employed to determine the affinity of the anti-TG2 antibodies involved the capture of the chimeric or humanised antibodies on a MAH coated CM5 chip, followed by the injection of a series of TG2 samples in running buffer. The running buffer was 1× HBS-P+ containing 1 mM CaCl₂, or 1×HBS-EP+ for calcium-free experiments. Antibody capture was carried out for a contact time of 120 seconds at a flow rate of 10 μl/min resulting in the capture of approximately 40-80 RU. TG2 was injected over the immobilised antibody at concentrations ranging from 25 nM to 400 nM with a contact time up to 600 seconds at a flow rate of 30 μl/min. Dissociation of TG2 was typically measured for up to 5400 seconds (1.5 hours). Regeneration of the chip was then performed using 3 M MgCl₂, for a contact time of 60 seconds at a flow rate of […], followed by a 300s stabilisation period before the next sample. For each of human and cynomolgus monkey TG2, at least 5 injections at a variety of concentrations were performed in at least two separate experiments.
(§2) Kinetic data were exported from the Biacore T200 Evaluation Software and analysed using GraphPad Prism, where the association phases and dissociation phases were analysed separately using a one phase association model and one-phase exponential decay model respectively. Association rates (kₒₙ) were calculated for each curve individually, and dissociation rates (koff) values from the long dissociation phase data collected. Where koff values were calculated to be <1×10⁻⁵ s⁻¹, values were set at 1×10⁻⁵ for analysis, as rates slower than this could not be estimated accurately. Values for kₒₙ and koff are presented in the tables below as the mean of the individual calculated values for each antibody for each TG2 species from multiple concentrations +/−1 standard deviation. KD values are calculated as mean koff/mean kₒₙ.

In test [2] the target is T2, human transglutaminase type 2 (TG2) (human, UniProt P21980 1-687).
T2 sequence: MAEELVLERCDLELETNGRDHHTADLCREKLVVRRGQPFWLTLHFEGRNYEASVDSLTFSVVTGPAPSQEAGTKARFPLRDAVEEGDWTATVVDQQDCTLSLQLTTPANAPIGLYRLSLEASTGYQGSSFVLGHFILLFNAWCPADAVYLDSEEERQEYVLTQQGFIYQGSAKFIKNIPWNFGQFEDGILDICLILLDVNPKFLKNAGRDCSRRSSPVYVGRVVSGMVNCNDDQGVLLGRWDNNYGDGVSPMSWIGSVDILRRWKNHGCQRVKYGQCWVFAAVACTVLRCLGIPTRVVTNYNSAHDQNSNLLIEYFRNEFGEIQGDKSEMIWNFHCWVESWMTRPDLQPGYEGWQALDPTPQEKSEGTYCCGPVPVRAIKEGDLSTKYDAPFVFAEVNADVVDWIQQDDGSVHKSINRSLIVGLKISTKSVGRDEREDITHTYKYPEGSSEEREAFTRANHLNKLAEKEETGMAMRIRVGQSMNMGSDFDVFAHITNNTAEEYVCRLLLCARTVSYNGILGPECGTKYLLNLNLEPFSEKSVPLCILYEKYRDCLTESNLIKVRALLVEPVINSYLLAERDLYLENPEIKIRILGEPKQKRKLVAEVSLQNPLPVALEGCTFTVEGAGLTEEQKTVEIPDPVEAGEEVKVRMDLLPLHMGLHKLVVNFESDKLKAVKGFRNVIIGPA
The test can be described thus: cell-based or functional assay.

Test [3] addresses T2, human transglutaminase type 2 (TG2). Kind of test: SPR (Biacore T200), antibody captured on anti-human IgG1 Fc chip, human TG2 injected; Ca2+ condition not marked in this row. Here is the method:
as §1, §2
In general terms: SPR reads the build-up and loss of mass on a sensor chip optically.

Test [4] addresses T1, cynomolgus monkey TG2. The test can be described thus: SPR (Biacore T200), antibody captured on anti-human IgG1 Fc chip, cynomolgus TG2 injected; +Ca2+. The procedure: as §1, §2
Test [5] addresses T2, human transglutaminase type 2 (TG2). Kind of test: SPR (Biacore T200), antibody captured on anti-human IgG1 Fc chip, human TG2 injected; +Ca2+. The procedure:
(§3) FIG. 45: Human TG2 binding to cAB003 immobilised antibody by Biacore. The association phases of human TG2 injections over the cAB003-coated biosensor at 25, 50, 100 and 200 nM, including in duplicate at 50 nM, are shown on the left. From the same experiment, two long dissociation phases were collected, as shown on the right.
as §1, with “For each of human and cynomolgus monkey TG2, at least 5 injections at a variety of concentrations were performed in at least two separate experiments.” left out
as §2

For test [6] the target is unchanged. Kind of test: SPR (Biacore T200), antibody captured on anti-human IgG1 Fc chip, human TG2 injected; -Ca2+. The procedure:
as §3
as §1, with “For each of human and cynomolgus monkey TG2, at least 5 injections at a variety of concentrations were performed in at least two separate experiments.” left out
as §2

Test [7] has as its target T1, cynomolgus monkey TG2. The test can be described thus: SPR (Biacore T200), antibody captured on anti-human IgG1 Fc chip, cynomolgus TG2 injected; -Ca2+. The procedure: as §1, §2
The target of test [8] is T3, rat TG2 (rat, UniProt Q9WVJ6 1-686).
T3 sequence: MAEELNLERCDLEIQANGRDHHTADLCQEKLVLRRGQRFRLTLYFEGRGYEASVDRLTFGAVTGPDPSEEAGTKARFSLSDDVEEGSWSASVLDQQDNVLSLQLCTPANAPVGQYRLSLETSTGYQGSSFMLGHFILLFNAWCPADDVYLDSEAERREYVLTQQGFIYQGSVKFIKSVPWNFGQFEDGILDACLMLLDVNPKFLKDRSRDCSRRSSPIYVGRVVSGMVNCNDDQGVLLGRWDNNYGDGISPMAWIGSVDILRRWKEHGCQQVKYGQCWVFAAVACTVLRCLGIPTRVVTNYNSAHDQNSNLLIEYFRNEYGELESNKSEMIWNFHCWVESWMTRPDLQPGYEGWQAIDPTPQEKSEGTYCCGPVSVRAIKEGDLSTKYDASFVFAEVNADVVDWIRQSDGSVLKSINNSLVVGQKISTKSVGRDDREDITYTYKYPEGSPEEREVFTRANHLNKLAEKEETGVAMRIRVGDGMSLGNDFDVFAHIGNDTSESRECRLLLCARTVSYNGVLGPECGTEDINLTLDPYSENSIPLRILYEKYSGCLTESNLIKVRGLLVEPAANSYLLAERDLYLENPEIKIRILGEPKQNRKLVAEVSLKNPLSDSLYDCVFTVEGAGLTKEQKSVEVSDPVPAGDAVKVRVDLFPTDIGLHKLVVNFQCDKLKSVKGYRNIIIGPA
Kind of test: western blot and ELISA.

Test [9] has as its target T3, rat TG2. Kind of test: cell-based or functional assay.

Positions count from the first letter of the chain named.

B1: hBB001AA humanised BB7 antibody (BB7 RHA with BB7 RKA) (antibody, V domains shown)
VH: EVQLLESGGGLVQPGGSLRLSCAASGIIFSSSAMSWVRQAPGKGLEWVATISSGGRSTYYPDSVKGRFTVSRDSSKNTLYLQMNSLRAEDTAVYYCAKLISPYWGQGTLVTVSS
VL: DIKMTQSPSSLSASVGDRVTITCKASQDINSYLTWFQQKPGKAPKTLIYLTNRLMDGVPSRFSGSGSGQEFLLTISSLQPEDFATYYCLQYVDFPYTFGQGTKVEIK
notes: The name AA is read as heavy version RHA + kappa version RKA; also called hBB01AA
By Kd is commonly meant a measure of binding affinity in units of concentration. What is called koff is a measure of how fast the partners let go of each other. The term kon denotes the rate constant with which the complex forms. In the test with cynomolgus monkey TG2 [1], B1 showed a dissociation constant Kd below 30 pM, a koff below 1e-05 s⁻¹ and an on-rate constant (kon) of 300000 M⁻¹ s⁻¹. Besides, in test [2], the “IC50, inhibition of extracellular TG2 activity of HK2 cells (biotin cadaverine incorporation into fibronectin)” value turned out to be 19800 pM. The kon in [3] was determined as 270000 M⁻¹ s⁻¹.

B2: hAB004 (hAB001AE) humanised AB1 antibody, heavy chain version RHA with light chain version RKE (antibody, V domains shown)
VH: B1 VH with I27F, I28T, A49S, S53V, R56G, S57K, V70I, S74N, P102L
VL: EIVLTQSPSSLSASVGDRVTITCKASQDINSYLTWYQQKPGKAPKLLIYRTNRLFDGVPSRFSGSGSGTDFFFTISSLQPEDFGTYYCLQYDDFPYTFGGGTKLEIK
notes: Captured by anti-human IgG1 Fc in SPR
For the molecule B2, in the test with cynomolgus monkey TG2 [1], the Kd was 11 pM.

B3: hBB001BB humanised BB7 antibody (BB7 RHB with BB7 RKB) (antibody, V domains shown)
VH: B1 VH with I27F, I28T, A49S, V70I, S74N
VL: B1 VL with K3Q, T46S, Q69T, E70D, L72F
notes: The name BB is read as heavy version RHB + kappa version RKB
In the test with cynomolgus monkey TG2 [1], B3 registered a Kd of 140 pM, a dissociation rate constant (koff) of 3.7e-05 s⁻¹ and a kon of 270000 M⁻¹ s⁻¹. For the same molecule, the “IC50, inhibition of extracellular TG2 activity of HK2 cells (biotin cadaverine incorporation into fibronectin)” value in [2] was 4900 pM. In addition, in [3], the Kd is below 40 pM, the koff is below 1e-05 s⁻¹ and the on-rate (kon) was found to be 240000 M⁻¹ s⁻¹.

B4: cAB003 chimeric anti-TG2 antibody (murine AB1 variable regions, human IgG1 and human kappa) (antibody, V domains shown)
VH: EVQLVESGGGLVKPGGSLKLSCAASGFTLSSSAMSWVRQTPDRRLEWVATISVGGGKTYYPDSVKGRFTISRDNAKNTLYLQMNSLRSEDTAMYYCAKLISLYWGQGTTLTVSS
VL: DIKMTQSPSSMYASLGERVTITCKASQDINSYLTWFQQKPGKSPKTLIYRTNRLFDGVPSRFSGSGSGQDFFLTISSLEYEDMGIYYCLQYDDFPYTFGGGTKLEIK
notes: The versions differ only in the first 7 residues; also called chimeric AB1
B4: the Kd was 50 pM in the test with cynomolgus monkey TG2 [4], below 60 pM in test [5], below 100 pM in [6] and 93 pM with cynomolgus monkey TG2 [7]. For the same molecule, the koff is 1.2e-05 s⁻¹ in the test with cynomolgus monkey TG2 [4], below 1e-05 s⁻¹ in test [5], below 1e-05 s⁻¹ in [6] and 1.3e-05 s⁻¹ in the test with cynomolgus monkey TG2 [7]. Moreover, the kon came to 240000 M⁻¹ s⁻¹ with cynomolgus monkey TG2 [4], 170000 M⁻¹ s⁻¹ in test [5], 86000 M⁻¹ s⁻¹ in test [6] and 140000 M⁻¹ s⁻¹ with cynomolgus monkey TG2 [7].

B5: BB7 murine monoclonal anti-TG2 antibody (antibody, V domains shown)
VH: AVQLVESGGGLVKPGGSLKLSCAASGIIFSSSAMSWVRQTPEKRLEWVATISSGGRSTYYPDSVKGRFTVSRDSAKNTLYLQMDSLRSEDTAIYYCAKLISPYWGQGTTLTVSS
VL: B4 VL with D1A, T20I, R50L, F55M, D70E, F72L, S77G, Y80H, D92V
notes: Mouse IgG from hybridoma (gamma-1 primer MHCG1, kappa); also called mBB001
Regarding B5, the binding result in the test with rat TG2 [8] is reported as “binds”.

B6: DH2 murine monoclonal anti-TG2 antibody (antibody, V domains shown)
VH: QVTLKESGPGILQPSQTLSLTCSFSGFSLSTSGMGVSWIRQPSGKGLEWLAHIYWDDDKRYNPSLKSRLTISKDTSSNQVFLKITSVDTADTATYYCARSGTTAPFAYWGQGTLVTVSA
VL: QIVLTQSPAIMSASPGEKVTMTCSASSSVSYMYWYQQKPGSSPRLLIYDTSNLASGVPVRFSGSGSGTSYSLTISRMEAEDAATFYCQQWSSSPLTFGAGTKLELK
Turning to B6, the “IC50, 3H-putrescine incorporation TG activity assay” value with rat TG2 [9] is 0.000223 mg/ml of IgG (amount required to inhibit 1 ng of TG2).

B7: DD9 murine monoclonal anti-TG2 antibody (antibody, V domains shown)
VH: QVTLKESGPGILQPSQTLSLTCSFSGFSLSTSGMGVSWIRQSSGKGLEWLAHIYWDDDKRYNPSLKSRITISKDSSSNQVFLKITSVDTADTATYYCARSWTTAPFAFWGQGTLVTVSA
VL: B6 VL with S30D, E78G, F85Y, S91N
notes: Mouse IgG from hybridoma (gamma-2a primer MHCG2A, kappa); also called mDD9001
In the case of B7, in the test with rat TG2 [8], the binding result is “binds”.

The record behind these values is patent US20180355060A1 (published 2018).
